Test [1] concerns the target T1, vaccinia-expressed E1E2 complex, isolate HCV-1 (genotype 1a) (hepatitis C virus, isolate HCV-1, UniProt P26664 192-383; P26664 384-746). Description: competition ELISA on HCV-1 E1E2; competitor m36 (A4). On the technique in general: ELISA stands for enzyme-linked immunosorbent assay.
The target of test [2] is T1, vaccinia-expressed E1E2 complex, …. Description: competition ELISA on HCV-1 E1E2; competitor m1 (AR1A).
For test [3] the target is unchanged. Description: competition ELISA on HCV-1 E1E2; competitor m2 (AR1B).
Test [4] has the same target. Description: competition ELISA on HCV-1 E1E2; competitor m23 (H53).
Test [5] has the same target. Description: competition ELISA on HCV-1 E1E2; competitor m4 (AR3A).
For test [6] the target is unchanged. Description: competition ELISA on HCV-1 E1E2; competitor m6 (AR3C).
Test [7] has the same target. Description: competition ELISA on HCV-1 E1E2; competitor m24 (7/59).
The target is the same in test [8]. Description: competition ELISA on HCV-1 E1E2; competitor m25 (9/27).
The target is the same in test [9]. Description: competition ELISA on HCV-1 E1E2; competitor m26 (AP33).
Test [10] shares this target. Description: competition ELISA on HCV-1 E1E2; competitor m28 (1/39).
Test [11] has the same target. Description: competition ELISA on HCV-1 E1E2; competitor m33 (9/75).
The target is the same in test [12]. Description: competition ELISA on HCV-1 E1E2; competitor m34 (6/53).
The target in test [13] is T2, E1E2 complex of HCV isolate H77 (genotype 1a), wild type (HCV isolate H77, UniProt P27958 192-383; P27958 384-746). Description: competition ELISA on H77 E1E2; competitor m37 (Fab N1).
The target of test [14] is T2, E1E2 complex of HCV isolate H77 …. Description: competition ELISA on H77 E1E2; competitor m38 (Fab N2).
Test [15] has the same target. Description: competition ELISA on H77 E1E2; competitor m39 (Fab N3).
For test [16] the target is unchanged. Description: competition ELISA on H77 E1E2; competitor m40 (Fab N4).
Test [17] shares this target. Description: competition ELISA on H77 E1E2; competitor m42 (Fab P1).
The target is the same in test [18]. Description: competition ELISA on H77 E1E2; competitor m46 (Fab P4).
For test [19], the target named is T1, vaccinia-expressed E1E2 complex, …. Description: competition ELISA on HCV-1 E1E2; competitor m20 (CBH-2).
Test [20] shares this target. Description: competition ELISA on HCV-1 E1E2; competitor m22 (CBH-7).
The target is the same in test [21]. Description: competition ELISA on HCV-1 E1E2; competitor m30 (7/16B).

B1: MAb AR1B (antibody, V domains shown)
VH: LESGGGLVQPGGSLRLSCEASGYYFSSFAMSWVRQTPGKGLEWVSSIAGGTLGRTSYRDSVKGRFTISRDNSKNTVFLHMNNLRPEDTAVYYCAKDPLLFAGGPNWFDHWGQGTLVTVSS
VL: not shown
notes: also called IgG1 of Fab D1
As for B1, the “% residual binding” value in test [1] came to 103%; in test [2], 15%; in test [3], 6%; in test [4], 12%; in [5], 76%; in [6], 66%. The “% residual binding” value in test [7] amounted to 77%; in test [8], 70%; in test [9], 69%; in test [10], 89%; in [11], 38%; in test [12], 92%. For the same molecule, the “% residual binding” value in test [13] was 95%; in test [14], 100%; in test [15], 92%; in [16], 95%; in [17], 97%; in test [18], 95%. The “% residual binding” value in test [19] came out at 98%; in test [20], 20%; in test [21] it was 91%.

B2: MAb AR2A (antibody, V domains shown)
VH: LEQSGAEMKKPGASLKVSCKTSGYTFDDYGVTWVRQAPGQGLEWMGWISAYSGNTFYARKFQGRVTMTTDPSTRTAYMELRSLRSDDTAVYFCARDRGLAINGVVFPYFGLDVWGQGTTVTVSS
VL: ELTQSPVSLPVTPGEPASISCRSSQSLLHSNGNHYLDWYLQKPGQSPQLLMYLGSNRASGVPDRFSGSGSGTDFTLKISRVEAEDVGVYYCMQGLQTPWTFGQGTKVEIKR
notes: also called IgG1 of Fab G
As for B2, the “% residual binding” value in test [1] amounted to 92%; in [2], 76%; in test [3], 57%; in test [4], 107%; in test [5], 76%; in test [6], 86%. The “% residual binding” value worked out at 99% in test [7]; 67% in test [8]; 63% in [9]; 90% in test [10]; 82% in [11]; 92% in test [12]. The “% residual binding” value came to 85% in test [13]; 86% in [14]; 69% in test [15]; 74% in [16]; 82% in [17]; 79% in [18]. The “% residual binding” value came to 93% in test [19], 17% in [20] and 95% in test [21].

B3: MAb AR3D (antibody, V domains shown)
VH: LEQSGAEVKKPGSSVKVSCKASGDTFRSYVITWARQAPGQGLEWMGAIIPFFGTTNLAQKFQGRVTITADESTKTVYMDLSSLRSDDTAVYYCAKAGDLSVGGVLAGGVPHLRHFDPWGQGTLVTVSS
VL: ELTQSPGTLSLSPGERATLSCRAGQTVASNSLAWYQHKPGQAPRLLIYGASIRASGIPDRFSGSGSGTDFTLTISRLEPEDFAVYYCQQYGLSSTFGQGTRLEIKR
notes: also called IgG1 of Fab L4
For B3, the “% residual binding” value in test [1] came out at 90%; in [2], 43%; in [3] it was 92%; in [4], 74%; in test [5], 13%; in [6], 13%. In addition, the “% residual binding” value in [8] was determined as 49%; in [9], 27%; in [10], 80%; in [11] it was 53%; in [12], 103%; in [13] it was 131%. Further, the “% residual binding” value in test [14] is 98%; in test [16], 92%; in [17], 145%; in test [18], 145%; in [19] it was 51%; in test [20] it was 33%. For the same molecule, the “% residual binding” value in test [21] was 94%.

B4: MAb AR1A (antibody, V domains shown)
VH: LEQSGAEVKKPGSSVKVSCRASGSPYSSYTITWVRQAPGQGLEWMGGIILMTGKANYAQKFQGRVTITADRATATAYMEMSSLTSDDTAIYYCARDPYVYAGDDVRSLSRWGQGTPVIVSS
VL: not shown
notes: also called IgG1 of Fab B2
Consider B4, for which the “% residual binding” value in test [1] worked out at 97%; in test [2], 15%; in test [3], 15%; in [4], 20%; in test [5], 44%; in test [6] it was 37%. The “% residual binding” value worked out at 70% in test [7]; 74% in test [8]; 102% in [9]; 84% in test [10]; 24% in test [11]; 89% in test [12]. For the same molecule, the “% residual binding” value in test [13] was found to be 83%; in [14], 82%; in test [15], 71%; in [16], 94%; in [17], 86%; in test [18], 85%. Moreover, the results for the “% residual binding” value in test [19], in [20] and in test [21] were 83%, 16% and 86%, respectively.

Values taken from patent US20110311550A1 (Scripps Research, published 2011).
